The values below come from US20240025956A1 (MIYAGI PREFECTURAL HOSPITAL ORGANIZATION, published 2024).

Numbering of substitutions follows the chain as printed.

Experiment [1] has as its target T1, mouse IL-2 receptor α (mouse, UniProt P01590 22-268).
T1 construct: whole, on cells; also called mouse IL-2Rα; CD25
T1 sequence (looked up): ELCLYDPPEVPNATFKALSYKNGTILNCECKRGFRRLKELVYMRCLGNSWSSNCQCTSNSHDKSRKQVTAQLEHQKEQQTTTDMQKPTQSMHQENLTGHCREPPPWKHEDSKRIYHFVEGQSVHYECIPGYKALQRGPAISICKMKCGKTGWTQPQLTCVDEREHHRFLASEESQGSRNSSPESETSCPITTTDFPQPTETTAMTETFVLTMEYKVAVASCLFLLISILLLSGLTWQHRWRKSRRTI
The experiment in a line: NanoLuc on-cell binding, mouse IL-2Rα-expressing 293T, ratio 293Ta/293T, 10 nM. The method, then:
(§1) Next, IL-2 receptor α binding capability on cells (on-cell receptor binding) was measured. Specifically, 293T cells were obtained from the RIKEN Cell Bank (RCB2202). Human and mouse IL-2 receptor α-expressing 293T (293Ta) was established as cells stably expressing the IL-2 receptor α in 293T through use of lentiviral vectors (pSIN-EF-RfA2-1-human IL-2Ra and pSIN-EF-RfA2-1-mouse IL-2Ra) constructed respectively with human and mouse IL-2 receptor α-chain genes (NCBI Reference Sequence: NM_000417.2 and NM_008367.3) as cassettes. 293T and human or mouse 293Ta were allowed to adhere to a 24 wel cell culture plate (Techno Plastic Products AG, #92424). After that, a suspension (10 nM) of NanoLuc (trademark) luciferase sequence (Promega Corporation, USA)-fused mature stable mutant human MK-4-IL-2 (MK-4, pcDNA4-MK-4-NLuc, corresponding to a comparative example), mature stable mutant human MK-6-IL-2 (MK-6, pcDNA4-MK-6-NLuc), mature stable mutant human IL-2 (MK-14, pcDNA4-MK-14-NLuc, IL-2 positive control), or mature stable mutant human MK-15-IL-2 (MK-15, pcDNA4-MK-15-NLuc) was added, and the mixture was subjected to a reaction by being left at rest at 4° C. for 1 hour. The cells were washed, followed by quantification. The binding capability of mutant IL-2 for the α-subunit is shown as a numerical value for a ratio between amounts bound to 293Ta and 293T (293Ta/293T). […]

The target of a further experiment is T2, human IL-2 receptor α (human, UniProt P01589 22-272).
T2 construct: whole, on cells; also called IL-2Rα; CD25
T2 sequence (looked up): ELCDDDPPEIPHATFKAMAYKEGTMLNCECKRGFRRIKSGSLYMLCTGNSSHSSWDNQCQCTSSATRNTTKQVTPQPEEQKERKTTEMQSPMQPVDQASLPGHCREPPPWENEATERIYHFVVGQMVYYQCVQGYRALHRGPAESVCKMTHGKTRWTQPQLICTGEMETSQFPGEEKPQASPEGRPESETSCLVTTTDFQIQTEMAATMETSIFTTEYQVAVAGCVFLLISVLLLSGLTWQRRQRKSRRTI
As to the kind of experiment: NanoLuc on-cell binding, human IL-2Rα-expressing 293T, ratio 293Ta/293T. As to the method: as §1

Experiment [2] deals with T1, mouse IL-2 receptor α. As to the kind of experiment: NanoLuc on-cell binding, mouse IL-2Rα-expressing 293T, ratio 293Ta/293T. As to the method:
as §1

B1: NanoLuc luciferase sequence-fused mature stable mutant human MK-4-IL-2 (ligand, not shown: large carriers)
chain: APASSSTKKTQLQLEHLLLDLQMILNGINNYKNPALTAMLTFKFYMPKKATELKHLQCLEEELKPLEEVLNLAQSKNFHLRPRDLISNINVIVLELKGSETTFMCEYADETATIVEFLNRWITFAQSIISTLT
notes: also called pcDNA4-MK-4-NLuc
Regarding B1, the binding result with mouse IL-2 receptor α [1] is given as “binds”.

B2: NanoLuc luciferase sequence-fused mature stable mutant human MK-6-IL-2 (ligand, not shown: large carriers)
chain: B1 chain with K43A, Y45A
notes: also called pcDNA4-MK-6-NLuc
Take B2: the binding result with human IL-2 receptor α is listed as “no binding (tested: 10 nM)”.

B3: NanoLuc luciferase sequence-fused mature stable mutant human MK-15-IL-2 (ligand, not shown: large carriers)
chain: B1 chain with F42A, Y45A
notes: also called pcDNA4-MK-15-NLuc
As for B3, the binding result with human IL-2 receptor α and in the experiment with mouse IL-2 receptor α [2] was “no binding (tested: 10 nM)” in each case.
